Laboratory results: patent US10076652B2, “Method for ultrasound-mediated delivery system to monitor molecular penetration” (CHANG GUNG UNIVERSITY, priority 2015, dated 2018)

Assay: Molecular penetration into the brain after focused ultrasound (FUS) induced BBB opening
Settings: in vivo
Source text: First, there are three testing substances, and their molecular size spreading from 1 to nearly 150 kDa are employed in second procedure. Three substances are Gd-DTPA, Evans blue, and Bevacizumab.
FIGS. 10A and 10B are about that selected the UEI ranging of 0.65 and 1.25 for testing, and under testing the center frequency of only 0.4 MHz is employed. FIG. 10A illustrates the measured molecular penetration (molecule 1-3) of different exposure conditions (UEI set to 0, 0.65, and 1.25). FIG. 10B illustrates the measured molecular penetration (molecule 1-3) of different molecular ranges (UEI set to 0, 0.65, and 1.25). These measurement results will be compared with the final predict results.
The molecule 1 has the highest penetration because of its small molecular size (1 kDa; the predicted concentration range is 1.7 to 6.2 μM during UEI ranging of 0.65-1.25). […]
Integrating of the UEI and the UII by above uniform and calibrated method steps, in this embodiment, it is possible to examine the three molecular penetrations reflecting to the four imaging indexes with different UEIs. Another experiment is conducted, the three molecular penetrations was measured (shown in FIG. 10), and comparing to the quantified predict results of the UEI. The correlation of UEI is evaluated under the UII.

Row | Compound | predicted concentration range (molecular penetration)
1 | Bevacizumab [molecule 3] | 0.02 to 2.1 µM
2 | Cc1cc(-c2ccc(/N=N/c3ccc4c(S(=O)(=O)O)cc(S(=O)(=O)O)c(N)c4c3O)c(C)c2)ccc1/N=N/c1ccc2c(S(=O)(=O)O)cc(S(=O)(=O)O)c(N)c2c1O [molecule 2, Evans blue] | 0.7 to 3.1 µM
